Laboratory results taken from patent US20160274120A1, “METHODS OF DETERMINING WHETHER THE WNT SIGNALING PATHWAY IS UPREGULATED IN A TUMOR” (ICAHN SCHOOL OF MEDICINE AT MOUNT SINAI, priority 2009, published 2016).

Experiments:
human sarcoma cells = test: Proliferation of sarcoma cells in vitro (1000 cells/60 mm, 10 days, crystal violet); type: cell-based; conditions: A2984, HT1080 and HCT116 cells, lentiviral shRNA
Description: FIGS. 16A-16F. Downregulation of CDC25A, a novel Wnt target gene, inhibits proliferation of human sarcoma cells in vitro. A. CDC25A is a direct target of Wnt signaling in sarcoma cells. Chromatin immunoprecipitation was conducted on DNA extracted from U-2 OS, a Wnt autocrine sarcoma cell line. Monoclonal antibody against β-catenin was used in immunoprecipitation. Axin 2, a known Wnt target gene, was used as a positive control. […] C. Downregulation of Wnt signaling (assayed by TCF4 reporter activity) in sarcoma cells expressing dnTCF4. Cells stably expressing TOP luciferase and a normalizer, renilla luciferase, were used in this assay. D. dnTCF expression induces growth arrest in sarcoma cells. Indicated human sarcoma cells were stably infected with dnTCF or an empty vector control and selected in puromycin for 3 days. Cells were plated at 1000 cells/60 mm
density and cultured for 10 days. […] E Knockdown of CDC25A or c-myc induces growth arrest in sarcoma cells. HCTZ 16, a human colon cancer cell line was used for comparison. Indicated cells were stably infected with either empty vector control or shRNA specific for CDC25A or c-myc and selected in puromycin and plated at 1000 cells/60 mm plate and cultured for 10 days. Cells were fixed and stained with crystal violet. F. Western blotting to show specific downregulation of CDC25A or c-myc after shRNA expression in indicated cells. […]

uncomplexed β-catenin = test: Uncomplexed β-catenin, GST-E-cadherin pull-down and immunoblot in NSCLC cells expressing Wnt antagonists; type: cell-based, human; conditions: for uncomplexed β-catenin level: H1819 NSCLC cells, stable (constitutive) expression
Description: FIGS. 2A-2E. Effects of FRP1 and DKK1 inhibition on Wnt/β-catenin signaling and growth of human NSCLC cells. (A) Effects of constitutive expression of FRP1 and DKK1 on uncomplexed β-catenin in H1819 NSCLC cell line. FRP1 and DKK1 expression was determined by immunoblot analysis as described in Materials and methods. (B) Analysis of NSCLC lines for uncomplexed β-catenin using regulatable expression of HA-tagged FRP1 (upper panel) and Flag-tagged DKK1 (lower panel). NSCLC cells expressing Tet regulatable FRP1-HA or DKK1-Flag were generated as described in supplemental Materials and methods. Expression of FRP1-HA or DKK1-Flag was induced by removal of dox from the culture medium. Cells expressing tetracycline Trans-activator (tTa) were used as control. Analysis of uncomplexed β-catenin was performed as described in Materials and methods using 1 mg total cell lysates, except for A427 cells, where 0.1 mg cell lysate was used. FRP1 and DKK1 expression was determined by immunoblot analysis as described in Materials and methods. (C) FRP1 and DKK1 mediated inhibition of TCF luciferase reporter activity in NSCLC cell lines. Luciferase reporter activity was calculated by dividing the TOP/RL ratio by the FOP/RL ratio. Results were normalized to the results with vector transduced cultures. The values represent the mean±SD from two independent experiments. (D) Real time PCR quantification of FRP1 and DKK1 effects on axin2 mRNA expression. H23, Al 146 and H1819 cells were infected with vector (VEC), FRP1-HA or DKK1-Flag lentiviruses. qRT-PCR was performed as described in supplemental Materials and methods. Relative mRNA expression levels were quantified using the ΔΔC(t) method (Pfaffl, 2001). (E) Effects of DKK1 on cell growth. A549, H23, H1819 and A427 cells were infected with lentiviruses expressing vector (VEC) or DKK1-Flag and 2×10^4 cells were plated into 60 mm tissue culture dishes. Cultures were visualized using crystal violet staining 2-3 weeks after plating. Expression of flagged tagged DKK1 was assessed by immunoblot analysis as described in Materials and methods.
GST-E-cadherin binding and immunoblot analysis was performed as previously described (Bafico et al, 1998), with the exception that for human tumor samples it was done with freshly frozen or stored tissue under cold, mild-detergent conditions. Specifically, the following protocol to assay for uncomplexed (active) β-catenin in human tumor samples was used:
(§1) analysis, cells were co-infected with TOP or FOP firefly luciferase mixed with a lentivirus expressing renilla luciferase (RL) used to normalize for infection efficiency (1:20-1:40 ratio). To assess the effects of FRP1 and DKK1 on TCF luciferase reporter activity, stable reporter cell lines were plated in 6 well plates and infected with vector, FRP1 or DKK1 lentiviruses. Cells were selected for 3 days with puromycin, lysed and processed for dual luciferase analysis. To generate stable inducible lines, cells were infected consecutively with tetracycline trans-activator (tTa) expressing lentivirus, selected for two weeks with 5-10 μg/ml blasticidin, followed by a second infection with lentiviruses expressing inducible FRP1, DKK1, DNTCF-4 or DNTCF-4-mOrange or empty vector, and selected for 4-7 days in 2 μg/ml puromycin in the presence of 10 ng/ml doxycycline. For induction of the antagonists, cells were trypsinized, washed with PBS and plated into 10 cm plates in the presence or absence of doxycyclin. Control cells expressing tTa or empty vector were processed in the same way. All infections were performed for 16 hr in the presence of 8 μg/ml polybrene.

TCF reporter activity = test: TCF mediated luciferase reporter activity (TOP/FOP) in NSCLC cell lines; type: cell-based, human; conditions: around 30% of Wnt activated NSCLC lines (summary)
Description: 24 hours before infection, stable reporter cell lines expressing TOP or FOP TCF luciferase and renilla luciferase were plated in 6 well plates at I×IO^5 cells/well. The following day cells were infected with lentiviruses expressing different Wnt antagonists, selected with 2 μg/ml puromycin for 3 days, lysed and processed for luciferase reporter assay using the dual luciferase reporter Kit (Promega) according to the manufacturer's protocol. Luciferase reporter activity was calculated by dividing the ratio TOP/RL by the FOP/RL ratio. Results were normalized to the results with vector transduced cultures.
as §1

NSCLC cells = test: Cell growth analysis assay (crystal violet staining) of NSCLC cells; type: cell-based, human; conditions: stable DKK1 expression
Text: Transduced and marker selected cells were trypsinized, counted and 1-2×10^4 cells plated into 60 mm tissue culture dishes. At 2-3 weeks, cells were washed with PBS, fixed in 10% methanol/acetic acid solution and stained with 1% crystal violet.

[1] = test system: autocrine Wnt NSCLC cells; test: Sensitization of NSCLC cells to cisplatin (colony growth, annexin/PI FACS); type: cell-based, human; conditions: H23 (autocrine Wnt) vs A549 cells, lentiviral DKK1, cisplatin
Description: FIGS. 13A and 13E. […] (A and B) Effects of cisplatin on growth of H23 (A) and A549 (B) cells infected with vector (VEC) or DKK1 expressing lentiviruses. 5×10^3 H23 and A549 cells expressing vector or DKK1 were plated in 60 mm plates. Cells were treated for 4 hr with 5 or 20 μM cisplatin or saline as control and colonies were visualized 2 weeks later by crystal violet staining. (C and D) Effects of cisplatin on apoptosis of H23 (C) and A549 (D) cells infected with vector (VEC) or DKK1 expressing lentiviruses and treated for 3 days with increasing concentrations of cisplatin. Adherent and floating cells were collected and processed for FACS analysis using annexin/PI. The percentage of annexin positive cells in vector or DKK1 infected cells is represented in the line graph. Results are the mean±SD of 3 independent experiments. Statistical two-way analysis of variance (ANOVA) tests with Bonferroni multiple testing corrections were performed. *−p<0.05, **−p<0.01, ***−p<0.001. […] Cell lysates were collected every 24 hr and analyzed by immunoblot. […]
For DNA content analysis, cells were trypsinized, combined with floating cells, washed with PBS, stained with propidium iodide (PI), using the CycleTEST Plus DNA reagent kit (Becton Dickinson) following the manufacturer instructions, and subjected to FACS analysis. […] Results were analyzed using Cell Quest 3.2 software (Becton Dickinson).

axin2 = test: Real time PCR quantification of axin2 mRNA expression in NSCLC cells; type: cell-based, human; conditions: around 30% of Wnt activated NSCLC lines (summary)
Description: Total RNA was isolated from cells using the Trizol Reagent (Invitrogen) according to the manufacturer's protocol. Semi-quantitative RT-PCR screen was performed using One Step RT-PCR Kit (Invitrogen) according to the manufacturer's protocol. PCR products were separated on 1% agarose gel. 5 μg total RNA was reverse transcribed using Superscript II reverse transcriptase (Invitrogen). Quantitative PCR was performed using SybrGreen 2× master mix (Roche) on a MJ Opticon or Stratagene MxPro3005. 50 ng cDNA were amplified as follows: 94° C. for 15 min, 94° C. for 15 s, 60° C. for 30 s, 72° C. for 1 min. Steps 2 through 4 were repeated for 40 cycles. Each reaction was performed in duplicate, and results of 3 independent experiments were used for statistical analysis. Relative mRNA expression levels were quantified using the ΔΔC(t) method (Pfaffl, 2001). Results were normalized to those for TATA Binding Protein (TBP). Primer sequences can be found in Tables 4 and 5.

[2] = H23 and A1146 tumor lines, inducible system, low expression in the presence of dox
[3] = around 30% of Wnt activated NSCLC lines (summary)

Molecule: CDC25A shRNA: shRNA specific for CDC25A, 5′CCAGGGAATTTCATTCCTC3′ (SEQ ID NO: 62) (CCAGGGAAATTTCATTCCTC; chemistry not fully specified)
- proliferation (human sarcoma cells): inhibited proliferation to varying degrees

B1: DKK1: Dickkopf-1, secreted Wnt antagonist binding co-receptor LRP6; Flag-tagged, expressed from lentiviral vector (protein, UniProt O94907 32-266, looked up)
Dickkopf-related protein 1: TLNSVLNSNAIKNLPPPLGGAAGHPGSAVSAAPGILYPGGNKYQTIDNYQPYPCAEDEECGTDEYCASPTRGGDAGVQICLACRKRRKRCMRHAMCCPGNYCKNGICVSSDQNHFRGEIEETITESFGNDHSTLDGYSRRTTLSSKMYHTKGQEGSVCLRSSDCASGLCCARHFWSKICKPVLKEGQVCTKHRRKGSHGLEIFQRCYCGEGLSCRIQKDHHQASNSSRLHTCQRH
modifications: Flag tag
notes: Flag-tagged, expressed from lentiviral vector
- uncomplexed β-catenin levels (uncomplexed β-catenin; H23 and A1146 cells, full induction (dox removed)): further reduced
- uncomplexed β-catenin levels (uncomplexed β-catenin; [2]): decrease
- uncomplexed β-catenin level (uncomplexed β-catenin): marked decrease
- uncomplexed β-catenin levels (uncomplexed β-catenin; H2347, H358 or A427 cells): no effect
- uncomplexed β-catenin levels (uncomplexed β-catenin; [3]): dramatic decrease
- TCF reporter activity (TCF reporter activity): dramatic decrease
- cell growth / proliferation vs vector control (NSCLC cells; A549 (no Wnt activation) and A427 (β-catenin mutant) cells): not associated with any detectable growth inhibition
- cell growth / proliferation vs vector control (NSCLC cells; H23 and H1819 tumor cells): antiproliferative effects
- sensitization to cisplatin treatment [1]: specifically sensitizes
- expression of the Wnt target gene axin2 (axin2): dramatic decrease

B2: FRP1: secreted Frizzled Related Protein, Wnt antagonist inhibiting Wnt ligand-receptor interaction; HA-tagged, expressed from lentiviral vector (protein, UniProt Q8N474 32-314, looked up)
Secreted frizzled-related …: SEYDYVSFQSDIGPYQSGRFYTKPPQCVDIPADLRLCHNVGYKKMVLPNLLEHETMAEVKQQASSWVPLLNKNCHAGTQVFLCSLFAPVCLDRPIYPCRWLCEAVRDSCEPVMQFFGFYWPEMLKCDKFPEGDVCIAMTPPNATEASKPQGTTVCPPCDNELKSEAIIEHLCASEFALRMKIKEVKKENGDKKIVPKKKKPLKLGPIKKKDLKKLVLYLKNGADCPCHQLDNLSHHFLIMGRKVKSQYLLTAIHKWDKKNKEFKNFMKKMKNHECPTFQSVFK
modifications: HA tag
notes: HA-tagged, expressed from lentiviral vector
- uncomplexed β-catenin levels (uncomplexed β-catenin; [2]): significant reduction
- uncomplexed β-catenin level (uncomplexed β-catenin): marked decrease
- uncomplexed β-catenin levels (uncomplexed β-catenin; H2347, H358 or A427 cells): no effect
- uncomplexed β-catenin levels (uncomplexed β-catenin; [3]): dramatic decrease
- TCF reporter activity (TCF reporter activity): dramatic decrease
- expression of the Wnt target gene axin2 (axin2): dramatic decrease
